Source: patent US20140186354A1 (published 2014)

B1: Recombinant Human Heregulin fragment (HRG) (ligand)
chain: GPGSSGKKPESAAGSQSPALPPQLKEMKSQESAAGSKLVLRCETSSEYSSLRFKWFKNGNELNRKNKPQNIKIQKKPGKSELRINKASLADSGEYMCKVISKLGNDSASANITIVESNEIITGMPASTEGAYVSSESPIRISVSTEGANTSSSTSTSTTGTSHLVKCAEKEKTFCVNGGECFMVKDLSNPSRYLCKCPNEFTGDRCQNYVMASFYKHLGIEFMEAEELYQK
notes: also called Heregulin beta (HRG)
B2: anti-HER3/HER4 antibody M-05-74 (antibody, V domains shown)
VH: QVQLQQSGAELAKPGASVKMSCKTSGYTLTDYWIHWVKQRPGQGLEWIGYINPYTGYTESNQKFKDKATLTADKSSNTAYIQLSSLTSEDSAVYYCARPYYYGDYWGQGTTLTVSS
VL: QIVLTQSPAIMSASPGERVTITCSASSSVSYMHWFQQKPGTSPKLLIYSTSNLASGVPARFSGSGSGTSYSLTISRMEAEDAATYYCQQRSSYPFTFGSGTKLEIK
notes: Murine monoclonal antibody from hybridoma (supernatant or purified full length); also called M-074; M-5-74

Experiments:
[1] = target: T1, human recombinant HER4 ECD (human, UniProt Q15303 26-651); assay: complex formed in solution before SPR
T1 sequence: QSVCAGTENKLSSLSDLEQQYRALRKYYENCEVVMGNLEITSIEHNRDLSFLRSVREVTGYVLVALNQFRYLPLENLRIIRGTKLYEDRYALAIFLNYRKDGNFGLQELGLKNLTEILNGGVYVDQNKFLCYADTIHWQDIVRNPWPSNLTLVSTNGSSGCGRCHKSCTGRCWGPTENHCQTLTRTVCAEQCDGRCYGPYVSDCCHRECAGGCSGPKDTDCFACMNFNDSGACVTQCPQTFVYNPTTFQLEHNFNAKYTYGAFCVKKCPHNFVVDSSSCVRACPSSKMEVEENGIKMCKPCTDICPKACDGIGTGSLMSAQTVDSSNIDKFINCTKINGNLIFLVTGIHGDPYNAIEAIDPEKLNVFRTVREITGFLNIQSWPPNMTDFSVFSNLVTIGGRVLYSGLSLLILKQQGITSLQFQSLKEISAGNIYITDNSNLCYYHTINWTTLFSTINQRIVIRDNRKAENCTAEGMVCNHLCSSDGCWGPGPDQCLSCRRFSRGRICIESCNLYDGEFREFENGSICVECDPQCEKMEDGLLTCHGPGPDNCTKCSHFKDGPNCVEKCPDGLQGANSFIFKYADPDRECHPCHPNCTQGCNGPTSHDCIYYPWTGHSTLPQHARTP

[2] = target: T2, human recombinant HER3 ECD (human, UniProt P21860 20-643); assay: complex formed in solution before SPR
T2 construct: 68 kDa; without ligand said to be in the closed conformation; also called human-Her3-ECD
T2 sequence (P21860 20-643): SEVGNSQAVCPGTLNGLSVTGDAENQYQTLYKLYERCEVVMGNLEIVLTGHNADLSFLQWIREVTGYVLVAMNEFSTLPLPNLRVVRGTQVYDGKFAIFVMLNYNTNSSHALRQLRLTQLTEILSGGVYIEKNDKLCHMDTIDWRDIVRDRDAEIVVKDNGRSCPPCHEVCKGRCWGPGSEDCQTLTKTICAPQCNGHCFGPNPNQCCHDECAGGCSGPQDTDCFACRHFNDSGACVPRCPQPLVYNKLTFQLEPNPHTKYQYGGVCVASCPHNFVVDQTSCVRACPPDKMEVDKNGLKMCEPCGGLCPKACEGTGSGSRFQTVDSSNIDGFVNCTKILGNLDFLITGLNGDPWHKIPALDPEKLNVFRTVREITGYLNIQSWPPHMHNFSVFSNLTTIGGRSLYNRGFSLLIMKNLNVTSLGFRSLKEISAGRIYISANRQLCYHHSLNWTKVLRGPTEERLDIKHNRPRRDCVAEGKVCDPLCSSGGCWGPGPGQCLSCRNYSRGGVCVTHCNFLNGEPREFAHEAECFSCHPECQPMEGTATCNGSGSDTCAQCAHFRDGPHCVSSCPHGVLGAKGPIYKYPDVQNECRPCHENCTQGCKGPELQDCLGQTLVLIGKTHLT

[3] = target: T3, HER3 ECD-HRG complex (human, UniProt P21860 20-643); assay: SPR Biacore T100
T3 construct: HER3 ECD pre-incubated with a 5-fold molar excess of Heregulin (open conformation); also called Her-3 ECD/Heregulin complex
T3 sequence (P21860 20-643 limits assumed, one chain of several): as the sequence (P21860 20-643) above

[4] = target: T4, HER4 ECD-HRG complex (human, UniProt Q15303 26-651); assay: SPR Biacore T100
T4 construct: HER4 ECD pre-incubated with a 5-fold molar excess of Heregulin; also called Her-4 ECD/Heregulin complex
T4 sequence 1: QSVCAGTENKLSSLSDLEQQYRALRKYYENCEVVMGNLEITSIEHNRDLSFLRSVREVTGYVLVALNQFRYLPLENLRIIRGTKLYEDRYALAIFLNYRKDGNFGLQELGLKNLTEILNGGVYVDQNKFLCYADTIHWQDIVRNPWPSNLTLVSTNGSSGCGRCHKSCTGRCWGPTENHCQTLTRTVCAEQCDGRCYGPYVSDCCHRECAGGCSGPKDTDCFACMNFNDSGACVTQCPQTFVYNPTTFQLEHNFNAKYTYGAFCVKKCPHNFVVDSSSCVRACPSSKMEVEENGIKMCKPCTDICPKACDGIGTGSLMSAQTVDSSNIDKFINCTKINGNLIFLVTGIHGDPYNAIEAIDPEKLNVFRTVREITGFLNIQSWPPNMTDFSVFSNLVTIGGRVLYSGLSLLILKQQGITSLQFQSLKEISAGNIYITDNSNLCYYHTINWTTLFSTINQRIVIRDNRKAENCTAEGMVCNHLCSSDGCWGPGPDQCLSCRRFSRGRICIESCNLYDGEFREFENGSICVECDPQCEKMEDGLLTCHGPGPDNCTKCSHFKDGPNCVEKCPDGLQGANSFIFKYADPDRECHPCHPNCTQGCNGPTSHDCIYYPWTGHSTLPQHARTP
T4 sequence 2: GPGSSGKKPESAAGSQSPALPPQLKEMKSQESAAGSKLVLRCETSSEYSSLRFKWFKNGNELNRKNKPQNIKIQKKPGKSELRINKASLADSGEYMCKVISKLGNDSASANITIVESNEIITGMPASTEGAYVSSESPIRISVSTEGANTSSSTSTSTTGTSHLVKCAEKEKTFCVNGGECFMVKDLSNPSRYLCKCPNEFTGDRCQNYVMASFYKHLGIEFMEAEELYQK

Binder | binding result [1] | binding result [2] | ratio Ka(+Heregulin)/Ka(-Heregulin), against HER3-ECD [3] | ratio MR(+Heregulin)/MR(-Heregulin), against HER3-ECD [3] | ratio Ka(+Heregulin)/Ka(-Heregulin), against HER4-ECD [4] | ratio MR(+Heregulin)/MR(-Heregulin), against HER4-ECD [4]
B1 | binds | binds |  |  |  | 
B2 |  |  | 4.85 | 3 | 23.9 | 6
